Measured values: PMC2248580 (BMC Structural Biology, 2007)

B1: VRV-PLVIII, the PLA2 from Daboia russelli pulchella venom (enzyme)
chain: SLLEFGKMILEETGKLAIPSYSSYGCYCGWGGKGTPKDATDRCCFVHDCCYGNLPDCNPKSDRYKYKRVNGAIVCEKGTSCENRICECDKAAAICFRQNLNTYSKKYMLYPDFLCKGELKC
B2: Vbb, the PLA2 from Vipera berus berus venom (enzyme)
chain: NLFQFGNMINHMVGKHAVWSYLSYGCYCGWGGQGKPQDATDRCCFVHDCCYGRANGCDPKLSTYSYNFQNGNIVCGNKYGCLRHICECDRVAAICFQKNMNTYNKKYKNYSSSNCQENSDKC
modifications: γ-carboxyglutamic acid in the Gla domain (residues 1–39)

Target: T1, human activated blood coagulation factor X (FXa) (human)
T1 construct: also called factor Xa; Stuart factor
Assay: SPR; […]; 37°C; HBS (10 mM Hepes, 150 mM NaCl, 5 mM CaCl2, 0.005% P20, pH 7.4); Langmuir fit; […]
Conditions: both partners purified

T1 sequence (P00742 whole entry): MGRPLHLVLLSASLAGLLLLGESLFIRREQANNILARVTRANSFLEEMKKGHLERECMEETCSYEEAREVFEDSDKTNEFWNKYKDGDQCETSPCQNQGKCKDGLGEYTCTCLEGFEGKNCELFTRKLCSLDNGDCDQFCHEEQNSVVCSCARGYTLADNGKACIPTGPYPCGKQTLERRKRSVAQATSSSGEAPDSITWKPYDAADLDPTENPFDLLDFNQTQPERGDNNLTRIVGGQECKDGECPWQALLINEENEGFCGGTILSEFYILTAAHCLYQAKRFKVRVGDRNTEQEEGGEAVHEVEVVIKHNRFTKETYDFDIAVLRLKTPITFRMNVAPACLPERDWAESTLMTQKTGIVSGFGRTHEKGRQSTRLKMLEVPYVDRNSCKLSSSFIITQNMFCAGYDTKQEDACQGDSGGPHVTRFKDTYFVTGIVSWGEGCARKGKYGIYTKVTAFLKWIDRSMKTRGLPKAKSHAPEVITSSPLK

Row | Binder | Kd | koff | kon
1 | B1 | 578 ± 15 nM | 0.026 s⁻¹ | 45000 M⁻¹ s⁻¹
2 | B2 | 830 ± 15 nM | 0.025 s⁻¹ | 30000 M⁻¹ s⁻¹
